Where a chain is given by its changes, count along the chain named.
B1: F1.9.19 human-murine chimeric antibody (antibody, human IgG1, kappa, V domains shown)
VH: DVQLQESGPGLVKPSQSLSLTCSVTGYSITSGYYWNWIRQFPGNRLEWMAYISYDGINNYNPSLKNRISIARDTSTNQFFLKLNSVTSEDTATYYCATTTEVALFDHWGQGTTLTVSS
VL: DVLLTQTPLSLPVSLGDQASISCRSSQNIVHGNGNTYLEWFLQKPGQSPKLLIYKVSNRFSGVPDRFSGSGSGTDFTLKISRVEAEDLGLYYCFQASHVPWTFGGGTKLEIKR
B2: F2.152.3 human-murine chimeric antibody (antibody, human IgG1, kappa, V domains shown)
VH: EVQLQQSGPELVKPGASVKMSCKASGYTFTDYYMTWVKQSHGKSLEWIGRVNPRNGDTTYNQKFEGRATLTLDKSLSTAFMQLNSLTSEDSAVYYCINSKGHFDYWGQGTTLTVSS
VL: B1 VL with L4M, N28S, G32S, L51S, L90V, A96G, W101P, G105A, I111L
B3: F2.154.1 human-murine chimeric antibody (antibody, human IgG1, kappa, V domains shown)
VH: QVQLQQSGAELVRPGASVKLSCKASGYRFTDYEMHWVKQTPVHGLEWIGTIDPETGNTAYTQKFMDKATLTADKSSSTAYMELRSLTSEDSAVYYCTRGYSFTYWGQGTLATVSA
VL: B1 VL with L4M, G32S, E39Q, F41Y, Y54F, L90V, A96G, W101F, G105T
B4: F3.81.19 human-murine chimeric antibody (antibody, human IgG1, kappa, V domains shown)
VH: B3 VH with R28T, T61N, M65K, D66G, G99P, F102L, A111V
VL: B1 VL with N28S, I29F, G32S, N35D, E39Q, F41Y, L90V, A96G, W101Y, G105S
B5: F3.38.7 human-murine chimeric antibody (antibody, human IgG1, kappa, V domains shown)
VH: QVQLQQSGAELVRPGASVKLSCKASGYTFTDYEIHWVKQTPVLGLEWIGAIDPKTGNTAYNQKFMGKATLTADKSSTTAYMDLRSLTSEDSAVYYCTRYFSFAYWGQGTLVTVSA
VL: B1 VL with L4M, N28T, I29F, G32S, E39Q, F41Y, L90V, A96G, W101Y, G105S
B6: F2.169.2 human-murine chimeric antibody (antibody, human IgG1, kappa, V domains shown)
VH: EVQLVETGGGLVQPKGSLKLSCAASGFSFNTNAMNWVRQAPGKGLEWVARIRSKSNNYATYYADSVKDRFTISRDDSQSMLYLQMNNLKTEDTAMYYCVRDGYYVLFAYWGQGTLVTVSA
VL: B1 VL with L4M, S25F, N28S, H31N, G32S, L90V, A96G, W101F, G105T
B7: F1.3.9 human-murine chimeric antibody (antibody, human IgG1, kappa, V domains shown)
VH: QVQLQQPGTELVKPGASVKLSCKASGYTFTSYWIHWVKQRPGQGLEWIGNINPPNAGTNYNEKFKSKATLTVDKSSSTAYMQLSSLTSEDSAVYYCARGRWLLHDYWGQGTTLTVSS
VL: DIQMTQSPASLSISVGETVTITCRASENIYSNLAWYQQKQGKSPQLLVYGTKNLAEGVPSRFSGSGSGTQYSLKINSLQSEDFGNYYCQHFWGTPYTFGGGTKLEILR
B8: F1.153.1 human-murine chimeric antibody (antibody, human IgG1, kappa, V domains shown)
VH: QIQLVQSGPELKKPGETVKISCKASGYTFTTAGMQWVQKMPGKGFKWIGWINTHSGEPQYAEDFKGRFAFSLETSASTAYLQISNLKNEDTATYFCARSFYYHGSSFFYFDYWGQGTTLTVSS
VL: DIVMTQSQKFMSTTVGDRVSITCKASQNVGTAVAWYQQKPGQSPKLLIYSASNRYTGVPDRFTGSGSGADFTLTISNMQSEDLADYFCQQYSRYPLTFGAGTKLELKR
B9: F1.62.9 human-murine chimeric antibody (antibody, human IgG1, kappa, V domains shown)
VH: QVQLQQSDAELVKPGASVKISCKVSGYIFTDHTIHWMKQRPEQGLEWIGYIYPRDGSIKYNENFKGKATLTADKSSSATYMQLNSLTSEDSAVYFCARPIYYDYAYYFDYWGQGTTLTVSS
VL: DVVMTQSPLSLPVSLGDQASISCRSRQSLVHSNGNTYLHWYLQKPGQSPKVLIYKVSNRFSGVPDRFSGSGSGTDFTLKISRVEAEDLGVYFCSQSTHVPYTFGGGTKLEIKR
B10: F2.23.8 human-murine chimeric antibody (antibody, human IgG1, kappa, V domains shown)
VH: B3 VH with R28T, I48F, T50A, N57G, T61N, M65R, D66A, G99F, T103A, A111V
VL: B9 VL with S7T, R26S, H39Q, V51L, S81T, G105S
B11: F2.39.2 human-murine chimeric antibody (antibody, human IgG1, kappa, V domains shown)
VH: QVQLQQSGAELVRPGASVKVSCKASGYTFTDYEMHWMKQTPVHGLEWIGANEPETGRSAYDQKFKGKATLTADKSSSTAYMELRSLTSEDSAVYYCTRFYSFAYWGQGTLVTVSA
VL: B9 VL with S7T, R26S, S28G, S32N, V51L, S96N, Y101P
B12: F3.54.12 human-murine chimeric antibody (antibody, human IgG1, kappa, V domains shown)
VH: QVQLQQSGAELVRPGASVKLSCKASGYTFTDYEMHWVKQTPVHGLEWIGAIDPETGNTAYIQKFKGKATLTTDKSSSTAYMELRSLTSEDSAVYYCTRFYSYSHWGQGTTLTVSS
VL: B9 VL with S7T, R26S, V51L, G71S, S96N, Y101P
B13: F2.92.1 human-murine chimeric antibody (antibody, human IgG1, kappa, V domains shown)
VH: QVQLQQSGAELVRPGASVKLSCKASGYIFSDYEIHWVKQTPVHGLECIGAVDPETGGTAYNQKFKGKATLTADKSSSTAYMELRSLTSEDSAVYFCTRFYSFAYWGQGTLVTVST
VL: B9 VL with S7T, A19G, R26S, H39Q, V51L, S94C, P100L, Y101P
B14: F2.55.11 human-murine chimeric antibody (antibody, human IgG1, kappa, V domains shown)
VH: EVKLVESGGGLVKPGGSLKLSCAASGLTFSTCTMSWVRQTPAKRLEWVATISSGGGNTYYPDSVKGRFTISRDNARNTLYLQMSSLRSEDTAMYYCVRLYYDGSPYAMDYWGQGTSVTVSS
VL: DIQMTQTTSSLSASLGDRVTISCRASQDISNHLNWYQQKPDGTVKLLIYYTSRLHSGVPSRFSGSGSGTDYSLTISNLEQEDIATYFCQQDSKPPPTFGSGTKLEIKR
B15: F1.136.7 human-murine chimeric antibody (antibody, human IgG1, kappa, V domains shown)
VH: EVQLQQSGPVMVKPGPSVKISCQTSGFTFTDYYIHWVKQSHGKSLEWIGLVFPYDGGTNYNQKFKDKATLTLDTSSSTAYMELNSLTSEDSAVYYCARAGGFSYALNYWGQGTSVTVSS
VL: DIQMTQSPSSLSASLGGKVTITCKASQDINNYIAWYQHKPGKGPRLLIHFTSTLQPGIPSRFSGSGSGRDYSFSISNLEPEDIATYYCLQYDNLLLTFGAGTKLELKR
B16: F1.145.22 human-murine chimeric antibody (antibody, human IgG1, kappa, V domains shown)
VH: QVQLQQSGTDLARPGASVKLSCKASGYTFTSFGISWVKQRTGQGLEWIGEIYPRSGSPYYNEKFTGKATLTADKSSSTAYMELRSLTSEDSAVYFCAKDFGSSYVFDYWGQGTALTVSS
VL: DIQMTQSPASLSASVGETVTITCRASENIYSYLTWYQQKQGKSPQLLVYNAKTLAEGVPSRFSGSGSGTQFSLKINSLQPEDFGTYYCQHHYGTPPTFGTGTKLDLKR

biological target: T1, murine GPC3-his protein (Sino Biological, Cat. No. 50989-M08B) (murine, UniProt Q8CFZ4 25-558); test: ELISA, coated murine GPC3-His;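 also: antigen coated on plates at 1 µg/mL, test antibody bound for 2 h at 37 °C, detected with HRP-conjugated secondary antibody and TMB substrate after acid stop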
T1 construct: Bought protein; also called murine GPC3 protein
T1 sequence (Q8CFZ4 25-558 limits assumed): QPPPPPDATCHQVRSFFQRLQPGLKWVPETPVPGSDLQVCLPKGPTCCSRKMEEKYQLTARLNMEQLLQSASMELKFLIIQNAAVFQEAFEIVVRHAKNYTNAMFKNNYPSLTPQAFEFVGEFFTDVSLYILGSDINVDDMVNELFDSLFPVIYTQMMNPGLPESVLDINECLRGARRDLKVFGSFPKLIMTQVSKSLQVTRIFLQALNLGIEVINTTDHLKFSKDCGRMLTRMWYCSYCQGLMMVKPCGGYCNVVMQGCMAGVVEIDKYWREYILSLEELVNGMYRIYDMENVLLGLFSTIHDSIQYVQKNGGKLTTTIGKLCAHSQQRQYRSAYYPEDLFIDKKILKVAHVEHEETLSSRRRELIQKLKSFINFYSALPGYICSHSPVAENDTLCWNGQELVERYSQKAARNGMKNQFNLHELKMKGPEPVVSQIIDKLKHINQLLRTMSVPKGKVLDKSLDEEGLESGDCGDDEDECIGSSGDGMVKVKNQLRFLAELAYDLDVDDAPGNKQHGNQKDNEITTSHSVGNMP

| OD450 at 0.0001 nM antibody [OD450 nm] | OD450 at 0.001 nM antibody [OD450 nm] | OD450 at 0.01 nM antibody [OD450 nm] | OD450 at 0.1 nM antibody [OD450 nm] | OD450 at 1 nM antibody [OD450 nm] | OD450 at 10 nM antibody [OD450 nm] | OD450 at 100 nM antibody [OD450 nm] | Binder |
| --- | --- | --- | --- | --- | --- | --- | --- |
| 0.05 | 0.04 | 0.05 | 0.05 | 0.05 | 0.05 | 0.07 | B1 |
| 0.05 | 0.12 | 0.67 | 1.94 | 2.54 | 2.53 | 2.47 | B2 |
| 0.05 | 0.05 | 0.05 | 0.05 | 0.05 | 0.05 | 0.06 | B3 |
| 0.05 | 0.05 | 0.04 | 0.04 | 0.05 | 0.05 | 0.1 | B4 |
| 0.06 | 0.06 | 0.05 | 0.04 | 0.05 | 0.06 | 0.12 | B5 |
| 0.05 | 0.09 | 0.38 | 1.68 | 2.49 | 2.72 | 2.63 | B6 |
| 0.05 | 0.04 | 0.04 | 0.05 | 0.18 | 0.18 | 0.37 | B7 |
| 0.04 | 0.08 | 0.04 | 0.04 | 0.05 | 0.08 | 0.09 | B8 |
| 0.04 | 0.04 | 0.05 | 0.04 | 0.04 | 0.06 | 0.28 | B9 |
| 0.05 | 0.06 | 0.07 | 0.04 | 0.06 | 0.05 | 0.06 | B10 |
| 0.05 | 0.06 | 0.07 | 0.05 | 0.05 | 0.05 | 0.06 | B11 |
| 0.11 | 0.05 | 0.05 | 0.05 | 0.05 | 0.09 | 0.34 | B12 |
| 0.04 | 0.05 | 0.05 | 0.07 | 0.05 | 0.05 | 0.07 | B13 |
| 0.05 | 0.05 | 0.05 | 0.05 | 0.05 | 0.07 | 0.16 | B14 |
| 0.05 | 0.05 | 0.06 | 0.22 | 0.17 | 0.91 | 0.17 | B15 |
| 0.05 | 0.06 | 0.08 | 0.75 | 0.77 | 1.62 | 1.32 | B16 |

Reference: patent US20260116991A1 (HAINAN SIMCERE ZAIMING PHARMACEUTICAL, published 2026)
